Test results from article PMC3799427 (Nucleic Acids Research, 2013).
Where a chain is given by its changes, count along the chain named. Names and notes keep the numbering of the source. Each block holds one binder with its values, some of them ahead of it.

Columns and labels:
[1] = target: T1, DNA polymerase III α subunit (Escherichia coli, UniProt P10443 1-1160); test: single molecule DNA stretching
[2] = target: T1, DNA polymerase III α subunit; test: other fluorescence titration

T1 sequence (P10443 whole entry): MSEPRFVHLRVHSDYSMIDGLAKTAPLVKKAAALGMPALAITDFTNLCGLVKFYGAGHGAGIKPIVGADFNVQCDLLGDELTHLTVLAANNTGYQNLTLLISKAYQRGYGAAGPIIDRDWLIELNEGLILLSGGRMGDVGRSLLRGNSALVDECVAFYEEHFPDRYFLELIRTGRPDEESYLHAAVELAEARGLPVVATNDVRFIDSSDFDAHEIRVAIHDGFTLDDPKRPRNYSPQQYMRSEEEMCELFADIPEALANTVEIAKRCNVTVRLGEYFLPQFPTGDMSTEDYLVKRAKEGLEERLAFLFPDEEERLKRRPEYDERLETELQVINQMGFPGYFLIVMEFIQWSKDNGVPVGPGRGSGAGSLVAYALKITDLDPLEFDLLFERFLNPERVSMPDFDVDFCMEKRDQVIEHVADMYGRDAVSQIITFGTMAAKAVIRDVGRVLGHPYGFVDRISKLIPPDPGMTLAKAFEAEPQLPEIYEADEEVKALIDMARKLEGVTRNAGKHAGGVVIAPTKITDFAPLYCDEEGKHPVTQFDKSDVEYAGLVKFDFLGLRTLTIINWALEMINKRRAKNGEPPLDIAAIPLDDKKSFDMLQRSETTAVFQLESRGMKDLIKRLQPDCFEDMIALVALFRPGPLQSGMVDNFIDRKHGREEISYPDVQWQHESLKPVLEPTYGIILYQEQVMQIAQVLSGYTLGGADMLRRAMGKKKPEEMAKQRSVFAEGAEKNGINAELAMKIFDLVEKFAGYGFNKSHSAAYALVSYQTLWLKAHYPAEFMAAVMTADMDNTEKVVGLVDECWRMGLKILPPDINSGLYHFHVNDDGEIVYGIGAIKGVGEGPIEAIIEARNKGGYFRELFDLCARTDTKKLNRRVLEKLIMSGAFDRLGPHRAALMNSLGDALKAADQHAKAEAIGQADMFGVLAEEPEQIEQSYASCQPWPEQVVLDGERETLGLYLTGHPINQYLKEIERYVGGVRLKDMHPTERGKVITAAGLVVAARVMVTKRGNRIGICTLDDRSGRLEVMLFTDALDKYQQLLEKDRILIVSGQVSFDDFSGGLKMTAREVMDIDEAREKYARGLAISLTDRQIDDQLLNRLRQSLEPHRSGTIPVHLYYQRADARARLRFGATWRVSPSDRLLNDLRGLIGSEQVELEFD

Kd [1]: 0.34 ± 0.103 µM
B1: UmuD, wild type (natural protein, Escherichia coli, UniProt P0AG11 1-139, looked up)
chain: MLFIKPADLREIVTFPLFSDLVQCGFPSPAADYVEQRIDLNQLLIQHPSATYFVKASGDSMIDGGISDGDLLIVDSAITASHGDIVIAAVDGEFTVKKLQLRPTVQLIPMNSAYSPITISSEDTLDVFGVVIHVVKAMR

Kd [2]: 18.1 µM
B2: UmuD D91K (natural protein, Escherichia coli, UniProt P0AG11 1-139, looked up)
chain: B1 chain with D91K

Kd [2]: 32.5 µM
B3: UmuD D91K-G92K (natural protein, Escherichia coli, UniProt P0AG11 1-139, looked up)
chain: B1 chain with D91K, G92K

Kd [2]: 1.3 µM
B4: UmuD G92K (natural protein, Escherichia coli, UniProt P0AG11 1-139, looked up)
chain: B1 chain with G92K
